This series relates to Nc1ncnc2c1ncn2[C@@H]1O[C@H](COP(=O)(O)O)[C@@H](O)[C@H]1O. Briefly: purified protein. The conditions noted are these: 50 mM Tris-HCl, 5 mM MnCl2, pH 7.5, 37°C, 0.05 µM enzyme.

The results in this text go back to PMC11407386, “Streptococcus suis 5’-nucleotidases contribute to adenosine-mediated immune evasion and virulence in a mouse model” (Virulence, 2024).

SntA (Streptococcus suis BM407): the Michaelis constant (Km) (0-500 µM AMP) is 13.67 µM.
For SntC (Streptococcus suis BM407), the Km (0-500 µM AMP) came out at 83.7 µM.
For the substance SntD (Streptococcus suis BM407), the Michaelis constant (Km) (0-2000 µM AMP) amounted to 412.1 µM.

The term Km denotes the concentration of substrate that gives half-maximal velocity.
